T1: NKp30 coated on the ELISA plate (Example 14) (UniProt O14931 19-135)
T1 chain: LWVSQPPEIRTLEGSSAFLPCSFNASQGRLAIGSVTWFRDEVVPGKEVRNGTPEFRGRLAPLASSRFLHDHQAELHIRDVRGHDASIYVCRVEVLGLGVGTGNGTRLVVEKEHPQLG


What was measured:
[1] = target: T1, NKp30 coated on the ELISA plate …; assay: ELISA
[2] = target: T1, NKp30 coated on the ELISA plate …; assay: competition ELISA; blocking of B7-H6 binding to NKp30

Binder | Kd [1] [nM] | IC50 [2] [nM]
B7-H6 (ligand) DLKVEMMAGGTQITPLNDNVTIFCNIFYSQPLNITSMGITWFWKSLTFDKEVKVFEFFGDHQEAFRPGAIVSPWRLKSGDASLRLPGIQLEEAGEYRCEVVVTPLKAQGTVQLEVVASPASRLLLDQVGMKENEDKYMCESSGFYPEAINITWEKQTQKFPHPIEISEDVITGPTIKNMDGTFNVTSCLKLNSSQEDPGTVYQCVVRHASLHTPLRSNFTLTAARHSLSETEKTDNFS | 6.56 | 
BJM1042 (bispecific anti-TRBC1/NKp30 antibody) (bispecific antibody) heavy: not shown light: DVVMTQSPLSLPVTLGQPASISCRSSQRLVHSNGNTYLHWYQQRPGQSPRLLIYRVSNRFPGVPDRFSGSGSGTDFTLKISRVEAEDVGVYFCSQSTHVPYTFGGGTKVEIKRTVAAPSVFIFPPSDEQLKSGTASVVCLLNNFYPREAKVQWKVDNALQSGNSQESVTEQDSKDSTYSLSSTLTLSKADYEKHKVYACEVTHQGLSSPVTKSFNRGEC EIQLLESGGGLVQPGGSLRLSCAVSGFSITTTGYHWNWVRQAPGKGLEWVGYIYSSGSTSYNPSLKSRFTISRDTSKNTFYLQMNSLRAEDTAVYYCARGDWHYFDYWGQGTMVTVSSGGGGSGGGGSGGGGSGGGGSDSVTTQSPLSLPVTLGQPASISCSGEKLSDKYVHWYQQRPGQSPRMLIYENDRRPSGVPDRFSGSNSGNDATLKISRVEAEDVGVYFCQFWDSTNSAVFGGGTKVEIKDKTHTCPPCPAPELLGGPSVFLFPPKPKDTLMISRTPEVTCVVVDVSHEDPEVKFNWYVDGVEVHNAKTKPREEQYASTYRVVSVLTVLHQDWLNGKEYKCKVSNKALPAPIEKTISKAKGQPREPQVCTLPPSREEMTKNQVSLSCAVKGFYPSDIAVEWESNGQPENNYKTTPPVLDSDGSFFLVSKLTVDKSRWQQGNVFSCSVMHEALHNHYTQKSLSLSPGK | 0.578 | 29.4
